Blank lines part the entries; values can stand above or below the molecule they belong to.
Key:
human uPAR = human uPAR (Homo sapiens, UniProt Q03405); experiment: Binding of 2G10 Fabs to uPAR measured using Octet instrument
Protocol: Measurement of 2G10-Fab-FA-LAP Affinity for uPAR: Stocks solutions were diluted to the following concentrations in 100 μL PBS: 2G10-Fab-LAP (10 μM), Lp1AΔHis (50 μM), FA (750 μM), ATP (3 mM), Mg(OAc)2 (5 mM). The resulting solution was incubated at 30° C. for 15 h and then quenched with 100 μL. 360 mM EDTA. Kinetic constants this sample, along with 2G10 and 2G10-Fab-LAP, were determined using an Octet RED384 instrument (ForteBio). Four concentrations of each Fab (500 nM, 250 nM, 100 nM and 50 nM) were tested for binding to the biotinylated antigen (human uPAR) immobilized on ForteBio streptavidin SA biosensors. All measurements were performed at room temperature in 384-well microplates and the running buffer was PBS with 0.1% (w/v) bovine serum albumin (BSA) and 0.02% (v/v) Tween 20. Biotinylated human uPAR was loaded for 180 s from a solution of 150 nM, baseline was equilibrated for 60 s, and then the Fabs were associated for 120 s followed by 300 s disassociation. Between each Fab sample, the biosensor surfaces were regenerated three times by exposing them to 10 mM glycine, pH 1.5 for 5 s followed by PBS for 5 s. Data were analyzed using a 1:1 interaction model on the ForteBio data analysis software 8.2.

[1] = target: T1, LAP peptide (Ac-GFEIDKVWYDLDA-OH)
T1 chain: GFEIDKVWYDLDA

[2] = target: T2, scrambled LAP peptide (Ac-EFDDWKYADVGLI)
T2 chain: EFDDWKYADVGLI

[3] = target: human urokinase plasminogen activator receptor (uPAR), biotinylated (human) (UniProt Q03405); experiment: BLI (Octet RED384), biotinylated human uPAR on streptavidin biosensors, Fab in solution, 1:1 model
Sequence of human urokinase plasminogen activator receptor (uPAR), biotinylated (human) (Q03405 23-303 limits assumed): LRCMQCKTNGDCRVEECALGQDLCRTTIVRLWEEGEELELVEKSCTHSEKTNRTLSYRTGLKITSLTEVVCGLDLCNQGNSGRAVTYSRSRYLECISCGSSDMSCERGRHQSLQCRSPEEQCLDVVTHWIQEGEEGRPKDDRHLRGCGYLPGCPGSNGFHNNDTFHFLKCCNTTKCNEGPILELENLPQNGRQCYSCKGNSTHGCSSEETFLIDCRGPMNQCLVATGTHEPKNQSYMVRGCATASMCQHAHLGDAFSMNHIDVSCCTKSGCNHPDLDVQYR

[4] = target: T3, human urokinase plasminogen activator receptor (uPAR), biotinylated (human, UniProt Q03405 23-303); experiment: as above
T3 construct: also called human uPAR; biotinylated human uPAR

Sequence of human uPAR (Q03405 23-305): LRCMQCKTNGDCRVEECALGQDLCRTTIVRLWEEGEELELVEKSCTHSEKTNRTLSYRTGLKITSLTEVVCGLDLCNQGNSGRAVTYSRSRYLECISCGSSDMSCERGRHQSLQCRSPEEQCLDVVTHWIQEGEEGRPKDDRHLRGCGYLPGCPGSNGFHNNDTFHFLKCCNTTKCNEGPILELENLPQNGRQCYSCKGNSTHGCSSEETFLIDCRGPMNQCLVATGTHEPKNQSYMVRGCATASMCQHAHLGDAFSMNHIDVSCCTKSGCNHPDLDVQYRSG

B2: LplA-His6 (E. coli lipoic acid ligase) (protein)
chain: MSTLRLLISDSYDPWFNLAVEECIFRQMPATQRVLFLWRNADTVVIGRAQNPWKECNTRRMEEDNVRLARRSSGGGAVFHDLGNTCFTFMAGKPEYDKTISTSIVLNALNALGVSAEASGRNDLVVKTTEGDRKVSGSAYRETKDRGFHHGTLLLNADLSRLANYLNPDKKKLAAKGITSVRSRVTNLTELLPEITHEQVCEAIREAFFAHYGERVEAEIISPDKTPDLPNFAETFARQSSWEWNFGQAPAFSHLLDERFTWGGVELHFDVEKGHITRAQVFTDSLNPAPLEALAGRLQGCLYRADMLQQECEALLVDFPEQEKELRELSTWIAGAVR
Yield/% (radio-TLC conjugation yield of [18F]-FA) [1]: 91%
conversion of LAP to [19F]-FA-LAP, RP-HPLC [1]: complete at 30 minutes
Yield/% (radio-TLC conjugation yield of [18F]-FA) [2]: 0%
conjugation of FA to peptide, RP-HPLC [2]: No productive reaction was observed after 60 minutes

B4: 2G10-Fab (Fab, V domains shown)
VH: QVQLQQSGPGLVKPSQTLSLTCAISGDSVSSNSAAWNWIRQSPSRGLEWLGRTYYRSKWYNDYAVSVKSRIIINPDTSKNQFSLQLNSVTPEDTAVYYCARDPGGPLDDSFDIWGQGTMVTVSS
VL: DVVMTQSPLSLPVTPGEPASISCRSSQSLLRSNGYNYLDWYLQKPGQSPQLLIYLGSIRASGVPDRFSGSGSGTDFTLRISRVEAEDVGVYYCMQALQTPFTFGQGTKLEIKR
Kd [4]: 38 nM

More lines, main results first:

Kd (human uPAR; Octet RED384, biotinylated human uPAR on streptavidin biosensors, room temperature, 1:1 interaction model, read-out: KD (nM), dissociation constants for 2G10-Fabs with uPAR): 31 ± 2.2 nM
B1: 2G10-Fab-LAP: 2G10 Fab with the LAP peptide sequence inserted at the C-terminus of the heavy chain (antibody)
heavy: QVQLQQSGPGLVKPSQTLSLTCAISGDSVSSNSAAWNWIRQSPSRGLEWLGRTYYRSKWYNDYAVSVKSRIIINPDTSKNQFSLQLNSVTPEDTAVYYCARDPGGPLDDSFDIWGQGTMVTVSSASTKGPSVFPLAPSSKSTSGGTAALGCLVKDYFPEPVTVSWNSGALTSGVHTFPAVLQSSGLYSLSSVVTVPSSSLGTQTYICNVNHKPSNTKVDKKVEPKSCAAHHHHHHAAGFEIDKVWYDLDA
light: DVVMTQSPLSLPVTPGEPASISCRSSQSLLRSNGYNYLDWYLQKPGQSPQLLIYLGSIRASGVPDRFSGSGSGTDFTLRISRVEAEDVGVYYCMQALQTPFTFGQGTKLEIKRTVAAPSVFIFPPSDEQLKSGTASVVCLLNNFYPREAKVQWKVDNALQSGNSQESVTEQDSKDSTYSLSSTLTLSKADYEKHKVYACEVTHQGLSSPVTKSFNRGEC
differences in binding affinity for uPAR between the Fabs (human uPAR; Octet, after bioconjugation with excess [19F]-FA): No significant differences in binding affinity

Kd [3]: 31 nM
B3: 2G10-Fab-LAP (Fab, V domains shown)
VH: QVQLQQSGPGLVKPSQTLSLTCAISGDSVSSNSAAWNWIRQSPSRGLEWLGRTYYRSKWYNDYAVSVKSRIIINPDTSKNQFSLQLNSVTPEDTAVYYCARDPGGPLDDSFDIWGQGTMVTVSS
VL: DVVMTQSPLSLPVTPGEPASISCRSSQSLLRSNGYNYLDWYLQKPGQSPQLLIYLGSIRASGVPDRFSGSGSGTDFTLRISRVEAEDVGVYYCMQALQTPFTFGQGTKLEIKR
